Test results reported in publication PMC6529630 (mBio, 2019).

How the values were obtained:
[1] = target: T1, GlnA4 (gamma-glutamylethanolamide synthetase) (Streptomyces coelicolor, UniProt O88070); assay: Pi-release inhibition assay with purified His-GlnA4, Ki from IC50 (Cheng-Prusoff); weak; format: biochemical
T1 construct: His-GlnA4
T1 sequence (O88070 1-462): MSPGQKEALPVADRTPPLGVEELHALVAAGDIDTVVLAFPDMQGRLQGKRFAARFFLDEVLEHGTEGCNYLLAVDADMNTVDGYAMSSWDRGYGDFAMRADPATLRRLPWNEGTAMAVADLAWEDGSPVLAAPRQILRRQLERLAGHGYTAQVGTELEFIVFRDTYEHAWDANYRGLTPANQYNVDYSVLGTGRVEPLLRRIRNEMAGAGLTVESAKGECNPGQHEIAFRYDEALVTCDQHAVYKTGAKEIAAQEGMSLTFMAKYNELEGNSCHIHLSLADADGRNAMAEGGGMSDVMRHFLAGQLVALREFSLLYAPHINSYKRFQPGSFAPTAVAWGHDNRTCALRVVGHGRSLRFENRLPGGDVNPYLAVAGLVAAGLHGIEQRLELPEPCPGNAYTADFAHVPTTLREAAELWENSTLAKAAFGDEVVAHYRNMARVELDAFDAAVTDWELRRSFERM

[2] = target: T1, GlnA4 (gamma-glutamylethanolamide synthetase); assay: HPLC/ESI-MS detection of reaction product of purified His-GlnA4; format: biochemical
[3] = substrate: N[C@@H](CCC(=O)O)C(=O)O; assay: purified protein; details: ATP, Mg2+ (MgCl2)
[4] = substrate: NCCO; assay: purified protein; details: ATP, Mg2+ (MgCl2)
[5] = substrate: Nc1ncnc2c1ncn2[C@@H]1O[C@H](COP(=O)(O)OP(=O)(O)OP(=O)(O)O)[C@@H](O)[C@H]1O; assay: Pi-release enzyme kinetics with purified His-GlnA4; format: biochemical, Streptomyces coelicolor; details: Mg2+ (MgCl2)

CS(=N)(=O)CC[C@H](N)C(=O)O (some centres unmarked) [methionine sulfoximine]
Ki [1]: ~11 mM

N[C@@H](CCC(=O)NCCO)C(=O)O [gamma-glutamylethanolamide]
HPLC/ESI-MS detection of reaction product of purified His-GlnA4 [2]: GlnA4 is a functional gamma-glutamylethanolamide synthetase that uses glutamate and ethanolamine as substrates to generate gamma-glutamylethanolamide

B1: GlnA4 (gamma-glutamylethanolamide synthetase) (Streptomyces coelicolor A3(2)) (protein)
chain: T1 sequence (O88070 1-462)
notes: His-GlnA4
Km [3]: 85410 µM
Km [4]: 470 µM
Km [5]: 2500 µM
